Non-standard residues stand in square brackets, D forms with d. No end group written: not given here. *: point of attachment. Pmc = Cc1c(C)c(S(=O)(=O)*)c(C)c2c1OC(C)(C)CC2; 2Nal = N[C@@H](Cc1ccc2ccccc2c1)C(=O)O; Pen = CC(C)(S)[C@H](N)C(=O)O
Key:
αvβ5 = test: ELISA
[1] = target: Platelet glycoprotein IIb/IIIa (human) (UniProt P08514); test: ELISA
[2] = target: Vitronectin receptor (human) (UniProt P06756); test: competition, ELISA or liposome assay, vitronectin coated
[3] = target: Platelet glycoprotein IIb/IIIa (human) (UniProt P08514); test: cell-based or functional assay

| Substance | IC50 (αvβ5) | other results |
| --- | --- | --- |
| (Mpr)NPRGD(Y-OMe)RC-NH2 | 3 µM | – |
| Ac(dPen)IPRGD(O-Me-Tyr)RC-NH2 | – | IC50 [1]: 0.002 µM |
| Ac-(Pmc)NPRGD(Y-OMe)RC-NH2 | 2.34 µM | – |
| G[Pen]GRGDRPCR (cysteine pairing not given here) | – | IC50 [2]: 0.01 µM |
| R2(Pen)GRGDTPCA (peptide) | – | IC50, ADP-Stimulated Aggregation [3]: 8.2 µM; IC50, Thrombin Stimulated Aggregation [3]: 2.7 µM |
| R(Pmc)GHRGD(O-Me-Tyr)RCR (Table I, row r54) (peptide) | – | IC50, ADP-Stimulated Aggregation [3]: 0.44 µM |
| R(Pmc)GYRGD(Y-OMe)RCR | 8.8 µM | – |
| analogue 18 (Asp for Gly at position -2 of R(Pmc)GHRGD(Y-OMe)RCR) (peptide) | – | fold decrease in potency relative to analogue 11 [3]: 4 fold |

Second part, led by results:

| IC50 (αvβ5) | Substance | other results |
| --- | --- | --- |
| 7.14 µM | Ac-CNPRGD(Y-OMe)LC-NH2 | – |
| 10 µM | R(Pmc)G(DY)RGD(Y-OMe)RCR | – |
| 15.3 µM | R(Pmc)GHRGD(p-Cl-F)RCR | – |
| 10 µM | R(Pmc)GHRGD[2Nal]RCR | – |

Source: patent publication US6521594
